Earlier results, collected in publication PMC8438204, “Unraveling the Thermodynamics of Ultra-tight Binding of Intrinsically Disordered Proteins” (Frontiers in Molecular Biosciences, 2021).

Key:
CcdB2 = conditions: ref Drobnak et al., 2013
Protocol: Supplement DataSheet1.docx, table 1: Table S1. Thermodynamic parameters and structural properties of the complexes. All parameters are reported at T = 25°C. | column: Thermodynamic parameters || Nonetheless, a handful of examples of IDP binders with ultra-high affinity have been characterized to date. […] Complexes are ordered according to the degree of energy optimization as estimated by the ΔH bind/ASAint values. For the HigA2_3-23-HigB2 complex the degree of energy optimization is similar to one observed for the pairs of globular high affinity binders (Supplementary Table S1, Figure 3A). […] The high affinit ...

barnase-barstar = conditions: ref Frisch et al., 1997
Protocol: Supplement DataSheet1.docx, table 1: Table S1. Thermodynamic parameters and structural properties of the complexes. All parameters are reported at T = 25°C. | column: Thermodynamic parameters || Next, we examine how the binding energetics of HigA2_3-23-HigB2 compares to other ultra-high affinity complexes formed by globular proteins. These include well-known examples such as the barnase-barstar and the complexes between various immunity proteins and colicin-DNases ([Hartley, 1989]; [Keeble et al., 2006]). The overall Gibbs free energies of globular high affinity complexes (ΔG assoc about −19 kcal/mol) are approximately 3 kcal/mol more negative compared to HigA2_3–23-HigB2. Since no significant conformational changes occur upon formation of globular high affinity complexes in any of th ... || Nonetheless, a handful of examples of IDP binders with ultra-high affinity have been characterized to date.

[1] = tested on: E7-Im7 (colicin DNase - immunity protein); conditions: ref Keeble et al., 2006
Protocol: Supplement DataSheet1.docx, table 1: Table S1. Thermodynamic parameters and structural properties of the complexes. All parameters are reported at T = 25°C. | column: Thermodynamic parameters

B1: CcdA (protein, UniProt P62552 1-72, looked up)
Antitoxin CcdA: MKQRITVTVDSDSYQLLKAYDVNISGLVSTTMQNEARRLRAERWKAENQEGMAEVARFIEMNGSFADENRDW
CcdB2; 25°C
  ΔG (association): -15.6 kcal/mol
CcdB2
  Kd: 4 pM

B2: barnase-barstar (protein, UniProt P00648 48-157; P11540 2-90, looked up)
Ribonuclease: AQVINTFDGVADYLQTYHKLPDNYITKSEAQALGWVASKGNLADVAPGKSIGGDIFSNREGKLPGKSGRTWREADINYTSGFRNSDRILYSSDWLIYKTTDHYQTFTKIR
Barstar: KKAVINGEQIRSISDLHQTLKKELALPEYYGENLDALWDCLTGWVEYPLVLEWRQFEQSKQLTENGAESVLQVFREAKAEGCDITIILS
barnase-barstar; 25°C
  -TΔS: -0.1 kcal/mol
  ΔG: -19 kcal/mol
barnase-barstar
  ΔCp: -0.36 ± 0.02 kcal mol^-1 K^-1

B3: E7-Im7 (protein, UniProt Q47112 1-576; Q03708 1-87, looked up)
Colicin-E7: MSGGDGRGHNSGAHNTGGNINGGPTGLGGNGGASDGSGWSSENNPWGGGSGSGVHWGGGSGHGNGGGNSNSGGGSNSSVAAPMAFGFPALAAPGAGTLGISVSGEALSAAIADIFAALKGPFKFSAWGIALYGILPSEIAKDDPNMMSKIVTSLPAETVTNVQVSTLPLDQATVSVTKRVTDVVKDTRQHIAVVAGVPMSVPVVNAKPTRTPGVFHASFPGVPSLTVSTVKGLPVSTTLPRGITEDKGRTAVPAGFTFGGGSHEAVIRFPKESGQKPVYVSVTDVLTPAQVKQRQDEEKRLQQEWNDAHPVEVAERNYEQARAELNQANKDVARNQERQAKAVQVYNSRKSELDAANKTLADAKAEIKQFERFAREPMAAGHRMWQMAGLKAQRAQTDVNNKKAAFDAAAKEKSDADVALSSALERRKQKENKEKDAKAKLDKESKRNKPGKATGKGKPVNNKWLNNAGKDLGSPVPDRIANKLRDKEFKSFDDFRKKFWEEVSKDPELSKQFSRNNNDRMKVGKAPKTRTQDVSGKRTSFELHHEKPISQNGGVYDMDNISVVTPKRHIDIHRGK
Colicin-E7 immunity protein: MELKNSISDYTEAEFVQLLKEIEKENVAATDDVLDVLLEHFVKITEHPDGTDLIYYPSDNRDDSPEGIVKEIKEWRAANGKPGFKQG
[1]; 25°C
  -TΔS: 10.5 kcal/mol
  ΔG: -19.8 kcal/mol
  ΔH: -30.3 ± 0.8 kcal/mol
[1]
  ΔCp: -0.69 kcal mol^-1 K^-1
